The values that follow come from article PMC9101030, “Myo5b Transports Fibronectin-Containing Vesicles and Facilitates FN1 Secretion from Human Pleural Mesothelial Cells” (International Journal of Molecular Sciences, 2022).

In this experiment the target is T1, Flag-Rab11b (full length) (human, UniProt Q15907 1-218).
T1 construct: human Rab11b, full length cDNA in a modified pFastbac HT; the nucleotide state is told by the assay; also called Rab11b-GTPγS; Rab11b-GDPβS; source: Sf9, baculovirus, purified (Ni-NTA); not shown: FLAG, N-terminal, kept
T1 sequence (looked up): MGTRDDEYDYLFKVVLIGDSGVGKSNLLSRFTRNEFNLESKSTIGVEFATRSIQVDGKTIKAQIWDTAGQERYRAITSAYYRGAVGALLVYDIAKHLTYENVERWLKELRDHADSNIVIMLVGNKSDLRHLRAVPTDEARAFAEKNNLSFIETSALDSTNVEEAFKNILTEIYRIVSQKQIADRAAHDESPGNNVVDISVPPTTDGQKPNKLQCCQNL
Nature of the experiment: pull-down; GST fusion on Glutathione Sepharose 4B; Flag-Rab11b pre-treated with 5-fold excess GTPγS (30 min, 37 °C); 10 µM Rab11b, 2.5 µM Myo5b Tail, 20 µM GTPγS, 20 mM Tris-HCl pH 7.5, 150 mM NaCl, 1 mM MgCl2, 1 mM EGTA, 1 mM DTT, 0.05% Tween, 1% BSA, 4 °C, 1 h; anti-flag Western blot. As to conditions: both partners purified. Background: Immunoblotting shows a protein as a band on a membrane.

B1: GST-Rab11FIP3 Rab binding domain (694-756 a.a.) (domain or fragment, human, UniProt O75154 694-756, looked up)
chain: QGAKSLFSTAFSESLAAEISSVSRDELMEAIQKQEEINFRLQDYIDRIIVAIMETNPSILEVK
notes: Cloned in pET-30a with GST at the N-terminus and 6xHis at the C-terminus; also called GST-FIP3 RBD; GST-FIP3-RBD; source: E. coli BL21 (DE3), purified (Ni-NTA); not shown: GST, N-terminal, kept
Take B1: the binding result is listed as “binds”.
